B1: Rrp4 (natural protein, S. cerevisiae, UniProt P38792 1-359, looked up)
chain: MSEVITITKRNGAFQNSSNLSYNNTGISDDENDEEDIYMHDVNSASKSESDSQIVTPGELVTDDPIWMRGHGTYFLDNMTYSSVAGTVSRVNRLLSVIPLKGRYAPETGDHVVGRIAEVGNKRWKVDIGGKQHAVLMLGSVNLPGGILRRKSESDELQMRSFLKEGDLLNAEVQSLFQDGSASLHTRSLKYGKLRNGMFCQVPSSLIVRAKNHTHNLPGNITVVLGVNGYIWLRKTSQMDLARDTPSANNSSSIKSTGPTGAVSLNPSITRLEEESSWQIYSDENDPSISNNIRQAICRYANVIKALAFCEIGITQQRIVSAYEASMVYSNVGELIEKNVMESIGSDILTAEKMRGNGN
B2: Csl4 (natural protein, S. cerevisiae, UniProt P53859 1-292, looked up)
chain: MACNFQFPEIAYPGKLICPQYGTENKDGEDIIFNYVPGPGTKLIQYEHNGRTLEAITATLVGTVRCEEEKKTDQEEEREGTDQSTEEEKSVDASPNDVTRRTVKNILVSVLPGTEKGRKTNKYANNDFANNLPKEGDIVLTRVTRLSLQRANVEILAVEDKPSPIDSGIGSNGSGIVAAGGGSGAATFSVSQASSDLGETFRGIIRSQDVRSTDRDRVKVIECFKPGDIVRAQVLSLGDGTNYYLTTARNDLGVVFARAANGAGGLMYATDWQMMTSPVTGATEKRKCAKPF
B3: Rrp40 (natural protein, S. cerevisiae, UniProt Q08285 1-240, looked up)
chain: MSTFIFPGDSFPVDPTTPVKLGPGIYCDPNTQEIRPVNTGVLHVSAKGKSGVQTAYIDYSSKRYIPSVNDFVIGVIIGTFSDSYKVSLQNFSSSVSLSYMAFPNASKKNRPTLQVGDLVYARVCTAEKELEAEIECFDSTTGRDAGFGILEDGMIIDVNLNFARQLLFNNDFPLLKVLAAHTKFEVAIGLNGKIWVKCEELSNTLACYRTIMECCQKNDTAAFKDIAKRQFKEILTVKEE

Target: T1, Rrp41/Rrp45 heterodimer (S. cerevisiae, UniProt P46948 1-246; Q05636 1-305)
T1 sequence (looked up) 1: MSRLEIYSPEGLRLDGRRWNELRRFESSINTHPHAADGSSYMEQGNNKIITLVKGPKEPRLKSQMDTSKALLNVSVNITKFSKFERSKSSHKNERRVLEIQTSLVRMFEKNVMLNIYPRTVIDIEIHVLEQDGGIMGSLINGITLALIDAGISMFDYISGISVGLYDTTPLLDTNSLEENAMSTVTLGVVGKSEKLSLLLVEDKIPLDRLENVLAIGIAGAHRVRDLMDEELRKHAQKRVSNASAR
T1 sequence (looked up) 2: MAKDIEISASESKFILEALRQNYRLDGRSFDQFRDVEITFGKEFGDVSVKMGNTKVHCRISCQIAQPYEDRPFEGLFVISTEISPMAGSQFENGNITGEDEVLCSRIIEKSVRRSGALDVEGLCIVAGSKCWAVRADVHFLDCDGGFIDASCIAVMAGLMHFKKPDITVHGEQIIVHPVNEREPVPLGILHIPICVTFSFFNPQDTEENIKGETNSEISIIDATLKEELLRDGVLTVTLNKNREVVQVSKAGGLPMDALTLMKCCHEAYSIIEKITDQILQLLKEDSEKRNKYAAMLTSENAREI
Assay: SEC

Binding result, binds:
B1
B2
B3
